Patent US20260184782A1 (TWIST BIOSCIENCE, published 2026)

T1: human TIGIT-Fc (human, UniProt Q495A1 22-141, limits assumed)
T1 construct: not shown: Fc; not described
T1 sequence (looked up): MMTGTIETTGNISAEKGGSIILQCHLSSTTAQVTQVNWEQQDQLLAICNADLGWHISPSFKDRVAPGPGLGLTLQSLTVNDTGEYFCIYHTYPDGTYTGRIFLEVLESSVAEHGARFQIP


These binders were tested against T1, human TIGIT-Fc (assay: CD155 competition ELISA, single point; further: test concentration or dose not given here).
Method: TIGIT/CD155 inhibition of VHH-Fcs were assessed using an ELISA assay (Table 10B). Briefly, human TIGIT-Fc was coated on a plate & then incubated with VHH-Fcs and human CD155-biotin. Bound CD155-biotin was detected using a streptavidin-HRP conjugate visualized with TMB. Strong inhibitors from the single point screen were titrated to determine EC50 (Table 10C).

OD (450 nm) [OD]	Binder
0.701	TIGIT-SC104 (Fc fusion, VHH-Fc) VHH: EVQLVESGGGLVQPGGSLRLSCAASGFTFSTYTMGWFRQAPGKEREFVAAISPSGNTYYADSVKGRFTISADNSKNTAYLQMNSLKPEDTAVYYCARWGGITFGGVYPLDYWGQGTLVTVSS
0.311	TIGIT-SC102 (Fc fusion, VHH-Fc) VHH: EVQLVESGGGLVQPGGSLRLSCAASGSTFSKHHAMGWFRQAPGKEREFVAAIRWSGGNTYYADSVKGRFTISADNSKNTAYLQMNSLKPEDTAVYYCARWYSSSGDYYYMDVWGQGTLVTVSS
0.284	TIGIT-SC133 (Fc fusion, VHH-Fc) VHH: EVQLVESGGGLVQPGGSLRLSCAASGFTLENNMMGWFRQAPGKEREFVAAISASGTLRAYADSVKGRFTISADNSKNTAYLQMNSLKPEDTAVYYCACGRVSGAFIYFDYWGQGTLVTVSS
0.959	TIGIT-SC105 (Fc fusion, VHH-Fc) VHH: EVQLVESGGGLVQPGGSLRLSCAASGFAFSRYGMGWFRQAPGKERELVATIGWSGSSTFYADSVKGRFTISADNSKNTAYLQMNSLKPEDTAVYYCARDGGPYYYGLDVWGQGTLVTVSS
0.307	TIGIT-SC93 (Fc fusion, VHH-Fc) VHH: EVQLVESGGGLVQPGGSLRLSCAASSRTVSSHAMGWFRQAPGKEREFVAAISWSGVTTYYADSVKGRFTISADNSKNTAYLQMNSLKPEDTAVYYCARWRSIWSGYDDYYYMDVWGQGTLVTVSS
0.438	TIGIT-SC87 (Fc fusion, VHH-Fc) VHH: EVQLVESGGGLVQPGGSLRLSCAASGSIDTINTMGWFRQAPGKEREFVAAITPSSRTTYYVDSVKGRFTISADNSKNTAYLQMNSLKPEDTAVYYCARWGGVTFGGVYPLEYWGQGTLVTVSS
0.845	TIGIT-SC134 (Fc fusion, VHH-Fc) VHH: EVQLVESGGGLVQPGGSLRLSCAASGFTLENNMMGWFRQAPGKEREFVAAISASGTLRAYADSVKGRFTISADNSKNTAYLQMNSLKPEDTAVYYCARWYRVNNWSPGYYYYMDVWGQGTLVTVSS
0.484	TIGIT-SC88 (Fc fusion, VHH-Fc) VHH: EVQLVESGGGLVQPGGSLRLSCAASGFTFSSDWMGWFRQAPGKEREFVAAINRSGHSTSYADSVKGRFTISADNSKNTAYLQMNSLKPEDTAVYYCARWGGVTFGGVYPLEYWGQGTLVTVSS
0.666	TIGIT-SC103 (Fc fusion, VHH-Fc) VHH: EVQLVESGGGLVQPGGSLRLSCAASGTITSAVFMGWFRQAPGKEREFVAAISWSGGDTNYADSVKGRFTISADNSKNTAYLQMNSLKPEDTAVYYCARWGGITFGGVYPLDYWGQGTLVTVSS
0.677	TIGIT-SC96 (Fc fusion, VHH-Fc) VHH: EVQLVESGGGLVQPGGSLRLSCAASGMTTIGPMGWFRQAPGKEREFVAAINWSGSSTVYADSVKGRFTISADNSKNTAYLQMNSLKPEDTAVYYCVTYSAYDFRNAWGQGTLVTVSS
0.445	TIGIT-SC150 (Fc fusion, VHH-Fc) VHH: EVQLVESGGGLVQPGGSLRLSCAASGFTLENNMMGWFRQAPGKEREFVAAISRSGTLKAYADSVKGRFTISADNSKNTAYLQVNSLKPEDTAVYYCVRVRGYSGYDCDYWGQGTLVTVSS

More lines, now with the values behind:

Binder	OD (450 nm) [OD]
TIGIT-SC85 (Fc fusion, VHH-Fc) VHH: EVQLVESGGGLVQPGGSLRLSCAASGRTFSPYTMGWFRQAPGKEREWVAGISQSGGSTAYADSVKGRFTISADNSKNTAYLQMNSLKPEDTAVYYCARDLNAMGDAYDIWGQGTLVTVSS	0.768
TIGIT-SC92 (Fc fusion, VHH-Fc) VHH: EVQLVESGGGLVQPGGSLRLSCAASGSTIENYAMGWFRQAPGKEREFVAAIDWSGGSTYYADSVKGRFTISADNSKNTAYLQMNSLKPEDTAVYYCARWRSIWSGYDDYYYMDVWGQGTLVTVSS	0.593
TIGIT-SC91 (Fc fusion, VHH-Fc) VHH: EVQLVESGGGLVQPGGSLRLSCAASGFTFSNYAMGWFRQAPGKEREFVAAINWNSRSTYYADSVKGRFTISADNSKNTAYLQMNSLKPEDTAVYYCARWRSIWSGYDDYYYMDVWGQGTLVTVSS	0.484
TIGIT-SC94 (Fc fusion, VHH-Fc) VHH: EVQLVESGGGLVQPGGSLRLSCAASGSSFSAYAMGWFRQAPGKEREFVSLINWSSGKTIYADSVKGRFTISADNSKNTAYLQMNSLKPEDTAVYYCARVRIFNHVHRPSYYFDYWGQGTLVTVSS	0.513
TIGIT-SC137 (Fc fusion, VHH-Fc) VHH: EVQLVESGGGLVQPGGSLRLSCAASGFTLENNMMGWFRQAPGKEREFVAAISRSGTLKAYADSVKGRFTISADNSKNTAYLQMNSLKPEDTAVYYCSLVSGPRWYWGQGTLVTVSS	0.306
TIGIT-SC100 (Fc fusion, VHH-Fc) VHH: EVQLVESGGGLVQPGGSLRLSCAASGRTLSDRAMGWFRQAPGKEREFVAAITDNGGSTYYADSVKGRFTISADNSKNTAYLQMNSLKPEDTAVYYCARWYSSSGDYYYMDVWGQGTLVTVSS	0.692
TIGIT-SC101 (Fc fusion, VHH-Fc) VHH: EVQLVESGGGLVQPGGSLRLSCAASGRTFSSYAMGWFRQAPGKEREFVAAIDWSDGSTYYADSVKGRFTISADNSKNTAYLQMNSLKPEDTAVYYCARWYSSSGDYYYMDVWGQGTLVTVSS	0.394
TIGIT-SC99 (Fc fusion, VHH-Fc) VHH: EVQLVESGGGLVQPGGSLRLSCAASGSIFSMNTMGWFRQAPGKEREFVGAINWSGGSTIYADSVKGRFTISADNSKNTAYLQMNSLKPEDTAVYYCARWDYDILTNYYWLEYWGQGTLVTVSS	0.635
TIGIT-SC89 (Fc fusion, VHH-Fc) VHH: EVQLVESGGGLVQPGGSLRLSCAASGSMSSINAMGWFRQAPGKEREFVAAINYEGDRTYYADSVKGRFTISADNSKNTAYLQMNSLKPEDTAVYYCARWTRGLVSGTYYYYMDVWGQGTLVTVSS	0.384
TIGIT-SC90 (Fc fusion, VHH-Fc) VHH: EVQLVESGGGLVQPGGSLRLSCAASGDTFSSKAMGWFRQAPGKEREFVAAIRWSVSSTYYADSVKGRFTISADNSKNTAYLQMNSLKPEDTAVYYCARWTRGLVSGTYYYYMDVWGQGTLVTVSS	0.519
TIGIT-SC86 (Fc fusion, VHH-Fc) VHH: EVQLVESGGGLVQPGGSLRLSCAASGIIASDSAMGWFRQAPGKEREFVAAIRWSGKETWYADSVKGRFTISADNSKNTAYLQMNSLKPEDTAVYYCARWGGVTFGGVYPLEYWGQGTLVTVSS	0.716
TIGIT-SC81 (Fc fusion, VHH-Fc) VHH: EVQLVESGGGLVQPGGSLRLSCAASGRSFKDDAMGWFRQAPGKEREFVAAISWSGDSTHYADSVKGRFTISADNSKNTAYLQMNSLKPEDTAVYYCARWVWASGTYWIDYWGQGTLVTVSS	0.553
TIGIT-SC136 (Fc fusion, VHH-Fc) VHH: EVQLVESGGGLVQPGGSLRLSCAASGFTLENNMMGWFRQAPGKEREFVAAISRSGTLKAYADSVKGRFTISADNSKNTAYLQMNSLKPEDTAVYYCARGGELTTFYFGYWGQGTLVTVSS	0.571
